The supplement of paper PMC9233669
Variants at the floor of the assay were thinned out.

Legend:
biotinyl-Phe-oxazolone = assay: self-aminoacylation, catalytic enhancement (BFO) (fold over background); higher = more active; k-Seq, kA / k0A0; sequences stand for … in GGGAAUGGAUCCACAUCUACGAAUUC…UUCACUGCAGACUUGACGAAGCUG
Summary of the method: (§1)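 Working in 50 μL HEPES/NaCl/KCl/MgCl2/CaCl2 buffer with 5% acetonitrile at pH 6.9–7.0, mutagenized RNA pools (0.43 μM; 21-nt variable region) were reacted with 2–1250 μM of each biotinyl-aminoacyl-oxazolone for 90 minutes at room temperature. Streptavidin capture followed, with quantification by triplicate qPCR and Illumina sequencing. Catalytic enhancement is reported as median kA over the uncatalyzed rate, the low-activity peak of a bimodal Gaussian fit to the data.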

biotinyl-Ile-oxazolone = assay: self-aminoacylation, catalytic enhancement (BIO) (fold over background); higher = more active; k-Seq, kA / k0A0; sequences stand for … in GGGAAUGGAUCCACAUCUACGAAUUC…UUCACUGCAGACUUGACGAAGCUG
Summary of the method: as §1

biotinyl-Met-oxazolone = assay: self-aminoacylation, catalytic enhancement (BMO) (fold over background); higher = more active; k-Seq, kA / k0A0; sequences stand for … in GGGAAUGGAUCCACAUCUACGAAUUC…UUCACUGCAGACUUGACGAAGCUG
Summary of the method: as §1

biotinyl-Val-oxazolone = assay: self-aminoacylation, catalytic enhancement (BVO) (fold over background); higher = more active; k-Seq, kA / k0A0; sequences stand for … in GGGAAUGGAUCCACAUCUACGAAUUC…UUCACUGCAGACUUGACGAAGCUG
Summary of the method: as §1

biotinyl-Leu-oxazolone = assay: self-aminoacylation, catalytic enhancement (BLO) (fold over background); higher = more active; k-Seq, kA / k0A0; sequences stand for … in GGGAAUGGAUCCACAUCUACGAAUUC…UUCACUGCAGACUUGACGAAGCUG
Summary of the method: as §1

biotinyl-Trp-oxazolone = assay: self-aminoacylation, catalytic enhancement (BWO) (fold over background); higher = more active; k-Seq, kA / k0A0; sequences stand for … in GGGAAUGGAUCCACAUCUACGAAUUC…UUCACUGCAGACUUGACGAAGCUG
Summary of the method: as §1

Sequence	self-aminoacylation (biotinyl-Phe-oxazolone)	self-aminoacylation (biotinyl-Ile-oxazolone)	self-aminoacylation (biotinyl-Met-oxazolone)	self-aminoacylation (biotinyl-Val-oxazolone)	self-aminoacylation (biotinyl-Leu-oxazolone)	self-aminoacylation (biotinyl-Trp-oxazolone)
AUUAUACUGGUCAUCGAGUGA [Fam2.1 aminoacylation ribozyme variant]	6.45	2.91	4.91	2.56	5.28	5.99
AUUAUCCUGGACAUCGAGUGA [Fam2.1 aminoacylation ribozyme variant]	34.7	2.88	6.78	3.06	6.24	8.19
AUUAUCCUGGUCAUCCAGUGA [Fam2.1 aminoacylation ribozyme variant]	11.1	2.14	3.69	2.28	4.27	4.26
AUUAUCCUGGUCAUCGAGCGA [Fam2.1 aminoacylation ribozyme variant]	1.01	1.77	1.59	1.41	1.83	1.46
AUUAUCCUGGUCAUCGAGUGA [Fam2.1 aminoacylation ribozyme variant]	20.7	6.23	13	6.5	13.5	14.5
AUUAUCCUGGUCAUCGAGUGC [Fam2.1 aminoacylation ribozyme variant]	1.72	1.29	1.77	1.25	2.16	0.981
AUUAUCCUGGUCAUCGGGUGA [Fam2.1 aminoacylation ribozyme variant]	69.6	7.1	14.1	7.7	17.1	17.4
AUUAUCCUGGUCAUCUAGUGA [Fam2.1 aminoacylation ribozyme variant]	77.8	4.87	10.6	4.98	10.8	13.2
AUUAUCCUGGUCAUUGAGUGA [Fam2.1 aminoacylation ribozyme variant]	67.5	5.33	11.7	5.05	11.7	13.9
AUUAUCCUGGUGAUCGAGUGA [Fam2.1 aminoacylation ribozyme variant]	45.5	3.55	7.34	3.46	7.98	9.06
AUUAUCGUGGUCAUCGAGUGA [Fam2.1 aminoacylation ribozyme variant]	27.7	2.83	4.44	3.25	4.54	5.66
AUUAUCUUGGUCAUCGAGUGA [Fam2.1 aminoacylation ribozyme variant]	12.4	3.54	5.16	3.11	5.73	6.57
AUUAUUCUGGUCAUCGAGUGA [Fam2.1 aminoacylation ribozyme variant]	22.9	3.4	5.31	3.12	6.25	7.13
AUUCAAAUAGGUCAUCGGGUG [Fam2.2 aminoacylation ribozyme variant]	40.1	3.9	5.54	3.38	7.01	5.77
AUUCAACUACGUCAUCGGGUG [Fam2.2 aminoacylation ribozyme variant]	26	3.26	4.57	2.95	6.07	4.72
AUUCAACUAGGUCACCGGGUG [Fam2.2 aminoacylation ribozyme variant]	38.8	4.11	5.89	4.37	6.53	5.05
AUUCAACUAGGUCAUCCGGUG [Fam2.2 aminoacylation ribozyme variant]	45.8	4.6	5.49	3.72	8.12	6.62
AUUCAACUAGGUCAUCGGCUG [Fam2.2 aminoacylation ribozyme variant]	5.81	1.57	1.91	1.75	1.46	1.45
AUUCAACUAGGUCAUCGGGAG [Fam2.2 aminoacylation ribozyme variant]	0.48	0.943	1.23	0.961	0.899	1.05
AUUCAACUAGGUCAUCUGGUG [Fam2.2 aminoacylation ribozyme variant]	17.7	1.9	2.55	1.85	3.55	2.54
AUUCAACUAGGUCAUUGGGUG [Fam2.2 aminoacylation ribozyme variant]	23.7	2.3	3.46	2.19	4.71	3.66
AUUCAACUAUGUCAUCGGGUG [Fam2.2 aminoacylation ribozyme variant]	33.1	3.08	4.78	2.45	6.15	4.57
AUUCACAAAGGUCAUCGGGUG [Fam2.2 aminoacylation ribozyme variant]	84.3	5.84	9.76	5.83	12.2	8.7
AUUCACACAGGUCAUCGGGUG [Fam2.2 aminoacylation ribozyme variant]	39.6	4.03	5.6	4.47	7.14	5.26
AUUCACAUAGGCCAUCGGGUG [Fam2.2 aminoacylation ribozyme variant]	34.7	3.23	4.86	3.41	5.85	4.23
